Starred links: 1 amine or outer side, 2 acyl side, 3 side chain; linkers in the order of their positions; H or OH if unused. Positions of bridges follow the written chain, without caps; N, C: chain ends. Non-standard residues stand in square brackets, D forms with d. Residues, ends and D or L forms follow the SMILES beside them. *: point of attachment. X12 = CCOCc1nc2c(NC(=O)OCCN(C)C(=O)OCc3ccc(NC(=O)[C@H](CCCNC(N)=O)NC(=O)[C@@H](NC(=O)Cn4cc(CCC(=O)*)nn4)C(C)C)cc3)nc3ccccc3c2n1CC(C)(C)O; X7 = CCOCc1nc2c(NC(=O)CCCNC(=O)OCc3ccc(NC(=O)[C@H](CCCNC(N)=O)NC(=O)[C@@H](NC(=O)Cn4cc(CCC(=O)*)nn4)C(C)C)cc3)nc3ccccc3c2n1CC(C)(C)O; X6 = CCN(Cc1nc2c(N)nc3ccccc3c2n1CC(C)(C)O)C(=O)OCc1ccc(NC(=O)[C@H](CCCNC(N)=O)NC(=O)[C@@H](NC(=O)Cn2cc(CCC(=O)*)nn2)C(C)C)cc1; X4 = CCN(Cc1nc2c(N)nc3ccccc3c2n1CC(C)(C)O)C(=O)OCc1ccc(NC(=O)[C@H](CCCNC(N)=O)NC(=O)C2(C(=O)*)CCC2)cc1; X8 = CCOCc1nc2c(NC(=O)OCc3ccc(NC(=O)[C@H](CCCNC(N)=O)NC(=O)C4(C(=O)*)CCC4)cc3)nc3ccccc3c2n1CC(C)(C)O; 1Nal = N[C@@H](Cc1cccc2ccccc12)C(=O)O; TBMB = c1c(C[*:1])cc(C[*:3])cc1C[*:2]; X5 = O=C(CCc1cn(CCCN[*:1])nn1)[*:2]; Tle = CC(C)(C)[C@H](N)C(=O)O; βAla = NCCC(=O)O; Sar = CNCC(=O)O A value given as a limit tells only on which side of the number the result lay.

A short description of one data set: Plasma stability, human. The class given is in vitro ADME. The conditions noted are these: human, plasma, pH 7.4. As to the method: (§1) The pooled frozen mouse, rat, dog, monkey or human plasma is thawed in a water bath at 37° C. prior to experiment. Plasma is centrifuged at 4000 rpm for 5 min and the clots are removed if any. […] For positive controls, 100 μM intermediate solution is prepared by diluting 20 μL of the stock solution with 180 μL 45% MeOH/H2O. […] For compounds I-7 to […]-17, […]-22, and […]-33, at each time point (0, 1, 2, 4, 6 and 24 hr), reactions were stopped by removing the plates from water bath and 200 μL 20 mM NH4OAC mix well first and then adding 800 μL of ice-cold stop solution (200 ng/mL Labetalol, 200 ng/mL Tolbutamide, 500 ng/mL N6-Ben and 40 mM DBAA in 100% Methanol). […] Sample plates were vortexed immediately on a plate shaker at 800 rpm for 10 min and then centrifuged at 4,000 rpm for 10 min. An aliquot of supernatant (200 μL) is transferred from each well before submitting to LC-MS/MS analysis. The percentage of test compound remaining at the individual time points relative to the 0 hour sample is calculated using following equation: Percent Remaining=100×(PAR at appointed incubation time/PAR at T0 time) where PAR is the peak area ratio of analyte versus internal standard (IS).

A short description of a further data set: Plasma stability, cyno. The class given is in vitro ADME. The conditions noted are these: cynomolgus monkey, plasma, pH 7.4. As to the method:
as §1

Another data set can be described thus: Plasma stability, rat. It counts as in vitro ADME. The conditions noted are these: rat, plasma, pH 7.4. On the procedure:
as §1

A short description of the next data set: Plasma stability, mouse. It counts as in vitro ADME. The conditions noted are these: mouse, plasma, pH 7.4. As to the method:
as §1

A short description of a further data set: Blood stability, mouse. It counts as in vitro ADME, CD-1 mouse. The conditions noted are these: male, CD-1, mouse. As to the method:
CD-1 mouse blood (n≥2, male, fasted overnight) is collected from animals housed at an internal facility. (EDTA-K2 is used as anticoagulant)
The test compounds and positive control stock solutions are prepared to 10 mM in DMSO or ultrapure water. Control compounds bisacodyl, enalapril and propantheline known to be metabolised by blood are also incubated alongside each batch of test compounds I-7, I-22, I-24, I-25, I-27, and I-29 to I-33. The dosing solutions of test compounds and controls are prepared by diluting the stock solution with 45% MeOH/H2O to achieve 100 uM. Test compound solutions (final incubation concentration=2 μM) are incubated with blood (final DMSO concentration≤1%) at six different time points (0, 1, 2, 4, 6 and 24 hours) in duplicate (n=2). The reaction is terminated by adding 100 uL ultra-pure water, mixing well, then adding 800 uL of 100% methanol containing 200 ng/mL tolbutamide and 200 ng/mL labetalol as internal standards. Samples are then vortexed and centrifuged at 3200×g for 20 minutes. Following centrifugation, the concentration of test compound in the supernatant is determined semi-quantitatively by LC-MS/MS. The percentage of test compound remaining at the individual time points relative to the 0 hour sample is then reported. The percent remaining of test compound after incubation in blood is calculated using following equation: Percent Remaining=100×(PAR at appointed incubation time/PAR at T0 time) where PAR is the peak area ratio of analyte versus internal standard (IS).

`CCOCc1nc2c(NC(=O)CCCNC(=O)OCc3ccc(NC(=O)[C@H](CCCNC(N)=O)NC(=O)[C@@H](NC(=O)Cn4cc(CCC(=O)NCCC(=O)N(C)CC(=O)N(C)CC(=O)N(C)CC(=O)N(C)CC(=O)N(C)CC(=O)N(C)CC(=O)N(C)CC(=O)N(C)CC(=O)N(C)CC(=O)N(C)CC(=O)N[C@@H](C)C(=O)N[C@H]5CSCc6cc7cc(c6)CSC[C@H](NC(=O)[C@@H](C)NC(=O)[C@H](Cc6cccc8ccccc68)NC(=O)[C@H](CCC(=O)O)NC(=O)[C@H](CC(N)=O)NC(=O)[C@@H](C)NC5=O)C(=O)N[C@@H](CCC(=O)O)C(=O)N[C@@H](CC(=O)O)C(=O)N[C@@H](Cc5ccccc5)C(=O)N[C@@H](Cc5ccc(O)cc5)C(=O)N[C@@H](CC(=O)O)C(=O)N[C@@H](C(C)(C)C)C(=O)N[C@H](C(N)=O)CSC7)nn4)C(C)C)cc3)nc3ccccc3c2n1CC(C)(C)O` [I-27] ({X7-βAla}-[Sar][Sar][Sar][Sar][Sar][Sar][Sar][Sar][Sar][Sar]AC[dA]NE[1Nal][dA]CEDFYD[Tle]C-NH2; linker 12-18-25 via TBMB): the half-life at 2 μM was over 24 h in “Plasma stability, human”; over 24 h in “Plasma stability, cyno”; over 24 h in “Plasma stability, rat”; under 2 h in the data set “Plasma stability, mouse”; 2 to 6 h in the data set “Blood stability, mouse”.
As for `CCOCc1nc2c(NC(=O)OCc3ccc(NC(=O)[C@H](CCCNC(N)=O)NC(=O)C4(C(=O)NCCCn5cc(CCC(=O)NCCC(=O)N(C)CC(=O)N(C)CC(=O)N(C)CC(=O)N(C)CC(=O)N(C)CC(=O)N(C)CC(=O)N(C)CC(=O)N(C)CC(=O)N(C)CC(=O)N(C)CC(=O)N[C@@H](C)C(=O)N[C@H]6CSCc7cc8cc(c7)CSC[C@H](NC(=O)[C@@H](C)NC(=O)[C@H](Cc7cccc9ccccc79)NC(=O)[C@H](CCC(=O)O)NC(=O)[C@H](CC(N)=O)NC(=O)[C@@H](C)NC6=O)C(=O)N[C@@H](CCC(=O)O)C(=O)N[C@@H](CC(=O)O)C(=O)N[C@@H](Cc6ccccc6)C(=O)N[C@@H](Cc6ccc(O)cc6)C(=O)N[C@@H](CC(=O)O)C(=O)N[C@@H](C(C)(C)C)C(=O)N[C@H](C(N)=O)CSC8)nn5)CCC4)cc3)nc3ccccc3c2n1CC(C)(C)O` [I-29] (X8-[X5][βAla][Sar][Sar][Sar][Sar][Sar][Sar][Sar][Sar][Sar][Sar]AC[dA]NE[1Nal][dA]CEDFYD[Tle]C-NH2; linker 14-20-27 via TBMB), the half-life at 2 μM in “Plasma stability, human” is over 24 h; in the data set “Plasma stability, cyno”, over 24 h; in the data set “Plasma stability, rat”, 6 to 24 h; in “Plasma stability, mouse”, over 24 h; in the data set “Blood stability, mouse”, under 2 h.
Regarding `CCN(Cc1nc2c(N)nc3ccccc3c2n1CC(C)(C)O)C(=O)OCc1ccc(NC(=O)[C@H](CCCNC(N)=O)NC(=O)C2(C(=O)NCCCn3cc(CCC(=O)NCCC(=O)N(C)CC(=O)N(C)CC(=O)N(C)CC(=O)N(C)CC(=O)N(C)CC(=O)N(C)CC(=O)N(C)CC(=O)N(C)CC(=O)N(C)CC(=O)N(C)CC(=O)N[C@@H](C)C(=O)N[C@H]4CSCc5cc6cc(c5)CSC[C@H](NC(=O)[C@@H](C)NC(=O)[C@H](Cc5cccc7ccccc57)NC(=O)[C@H](CCC(=O)O)NC(=O)[C@H](CC(N)=O)NC(=O)[C@@H](C)NC4=O)C(=O)N[C@@H](CCC(=O)O)C(=O)N[C@@H](CC(=O)O)C(=O)N[C@@H](Cc4ccccc4)C(=O)N[C@@H](Cc4ccc(O)cc4)C(=O)N[C@@H](CC(=O)O)C(=O)N[C@@H](C(C)(C)C)C(=O)N[C@H](C(N)=O)CSC6)nn3)CCC2)cc1` [I-30] (X4-[X5][βAla][Sar][Sar][Sar][Sar][Sar][Sar][Sar][Sar][Sar][Sar]AC[dA]NE[1Nal][dA]CEDFYD[Tle]C-NH2; linker 14-20-27 via TBMB), the half-life at 2 μM is over 24 h in “Plasma stability, human”; over 24 h in the data set “Plasma stability, cyno”; over 24 h in “Plasma stability, rat”; over 24 h in “Plasma stability, mouse”; 6 to 24 h in “Blood stability, mouse”.
In the case of `CCOCc1nc2c(NC(=O)OCCN(C)C(=O)OCc3ccc(NC(=O)[C@H](CCCNC(N)=O)NC(=O)[C@@H](NC(=O)Cn4cc(CCC(=O)NCCC(=O)N(C)CC(=O)N(C)CC(=O)N(C)CC(=O)N(C)CC(=O)N(C)CC(=O)N(C)CC(=O)N(C)CC(=O)N(C)CC(=O)N(C)CC(=O)N(C)CC(=O)N[C@@H](C)C(=O)N[C@H]5CSCc6cc7cc(c6)CSC[C@H](NC(=O)[C@@H](C)NC(=O)[C@H](Cc6cccc8ccccc68)NC(=O)[C@H](CCC(=O)O)NC(=O)[C@H](CC(N)=O)NC(=O)[C@@H](C)NC5=O)C(=O)N[C@@H](CCC(=O)O)C(=O)N[C@@H](CC(=O)O)C(=O)N[C@@H](Cc5ccccc5)C(=O)N[C@@H](Cc5ccc(O)cc5)C(=O)N[C@@H](CC(=O)O)C(=O)N[C@@H](C(C)(C)C)C(=O)N[C@H](C(N)=O)CSC7)nn4)C(C)C)cc3)nc3ccccc3c2n1CC(C)(C)O` [I-32] ({X12-βAla}-[Sar][Sar][Sar][Sar][Sar][Sar][Sar][Sar][Sar][Sar]AC[dA]NE[1Nal][dA]CEDFYD[Tle]C-NH2; linker 12-18-25 via TBMB), the half-life at 2 μM is over 24 h in the data set “Plasma stability, human”; over 24 h in the data set “Plasma stability, cyno”; under 2 h in the data set “Plasma stability, rat”; under 2 h in the data set “Plasma stability, mouse”; under 2 h in “Blood stability, mouse”.
On to `CCN(Cc1nc2c(N)nc3ccccc3c2n1CC(C)(C)O)C(=O)OCc1ccc(NC(=O)[C@H](CCCNC(N)=O)NC(=O)[C@@H](NC(=O)Cn2cc(CCC(=O)NCCC(=O)N(C)CC(=O)N(C)CC(=O)N(C)CC(=O)N(C)CC(=O)N(C)CC(=O)N(C)CC(=O)N(C)CC(=O)N(C)CC(=O)N(C)CC(=O)N(C)CC(=O)N[C@@H](C)C(=O)N[C@H]3CSCc4cc5cc(c4)CSC[C@H](NC(=O)[C@@H](C)NC(=O)[C@H](Cc4cccc6ccccc46)NC(=O)[C@H](CCC(=O)O)NC(=O)[C@H](CC(N)=O)NC(=O)[C@@H](C)NC3=O)C(=O)N[C@@H](CCC(=O)O)C(=O)N[C@@H](CC(=O)O)C(=O)N[C@@H](Cc3ccccc3)C(=O)N[C@@H](Cc3ccc(O)cc3)C(=O)N[C@@H](CC(=O)O)C(=O)N[C@@H](C(C)(C)C)C(=O)N[C@H](C(N)=O)CSC5)nn2)C(C)C)cc1` [I-33] ({X6-βAla}-[Sar][Sar][Sar][Sar][Sar][Sar][Sar][Sar][Sar][Sar]AC[dA]NE[1Nal][dA]CEDFYD[Tle]C-NH2; linker 12-18-25 via TBMB), for which the half-life at 2 μM in “Plasma stability, human” is over 24 h; in the data set “Plasma stability, cyno” it was over 24 h; in the data set “Plasma stability, rat” it was over 24 h; in the data set “Plasma stability, mouse”, 6 to 24 h; in the data set “Blood stability, mouse” it was 6 to 24 h.

For the origin of these results see patent US20200283482A1, “BICYCLIC PEPTIDE LIGAND PRR-A CONJUGATES AND USES THEREOF” (BicycleRD Limited, priority 2017, published 2020).
